From CN111995682A (BIOSION BIO TECH NANJING CO LTD, dated 2020) come the findings set out here.

For assay [1], the target named is T1, 重组人SIRPα带his标签的蛋白 (human, UniProt P78324 31-373).
T1 construct: extracellular domain; also called 人SIRPα-his抗原; SRPA-ECD-His; not shown: C-terminal His tag from vector pCMV-C-His
Description: SPR (Biacore T200), human SIRPα-his as analyte. On the technique in general: SPR reads the build-up and loss of mass on a sensor chip optically.

Assay [2] deals with T1, 重组人SIRPα带his标签的蛋白. Kind of assay: SPR (Biacore T200), antibody captured on anti-mouse IgG CM5 chip, human SIRPα-his as analyte.
Another assay deals with T2, 人SIRPβ-ECD-His抗原 (human, UniProt O00241 30-371).
T2 construct: It ends in a His tag; also called SIRPβ抗原
T2 sequence (O00241 other isoform, or with tags, fused parts or gaps): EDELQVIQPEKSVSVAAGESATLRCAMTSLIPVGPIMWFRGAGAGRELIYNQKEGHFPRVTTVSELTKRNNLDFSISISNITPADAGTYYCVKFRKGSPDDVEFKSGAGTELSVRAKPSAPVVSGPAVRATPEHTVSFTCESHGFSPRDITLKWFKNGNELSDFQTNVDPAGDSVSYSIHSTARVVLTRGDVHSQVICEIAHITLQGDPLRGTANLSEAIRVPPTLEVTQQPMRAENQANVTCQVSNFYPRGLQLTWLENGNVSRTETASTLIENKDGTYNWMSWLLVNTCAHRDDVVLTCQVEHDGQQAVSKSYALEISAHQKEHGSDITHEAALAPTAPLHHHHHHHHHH
Kind of assay: ELISA summary (Table 3, methods of Example 2). On the technique in general: ELISA stands for enzyme-linked immunosorbent assay.

The target of assay [3] is T1, 重组人SIRPα带his标签的蛋白. Description: SPR (Biacore T200), ratio of KD against Benchmark.

T1 sequence (P78324 31-373): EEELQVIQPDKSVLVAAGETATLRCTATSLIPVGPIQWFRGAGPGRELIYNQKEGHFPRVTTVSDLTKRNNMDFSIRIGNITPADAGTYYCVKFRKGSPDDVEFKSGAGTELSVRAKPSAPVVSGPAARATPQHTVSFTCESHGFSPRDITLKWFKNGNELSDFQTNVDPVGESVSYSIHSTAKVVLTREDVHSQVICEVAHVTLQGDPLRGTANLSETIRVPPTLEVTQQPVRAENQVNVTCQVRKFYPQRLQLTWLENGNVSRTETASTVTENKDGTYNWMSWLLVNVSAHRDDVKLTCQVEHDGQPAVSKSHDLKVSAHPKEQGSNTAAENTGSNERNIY

B1: Benchmark (KWAR23抗体) (antibody, human IgG4 S228P, kappa, V domains shown)
VH: EVQLQQSGAELVKPGASVKLSCTASGFNIKDYYIHWVQQRTEQGLEWIGRIDPEDGETKYAPKFQDKATITADTSSNTAYLHLSSLTSEDTAVYYCARWGAYWGQGTLVTVSA
VL: QIVLTQSPAIMSASPGEKVTLTCSASSSVSSSYLYWYQQKPGSSPKLWIYSTSNLASGVPARFSGSGSGTSYSLTISSMEAEDAASYFCHQWSSYPRTFGAGTKLELKR
notes: Made in-house; full heavy and light chains are printed; The printed constant regions look human, while the ELISA and Biacore protocols describe anti-mouse capture and detection reagents; also called BM; 参照抗体
In general, Kd refers to the equilibrium constant for the complex coming apart. A high value points to weaker binding. In turn, B1 showed a Kd with 重组人SIRPα带his标签的蛋白 [1] of 2.94 nM.

B2: 抗人SIRPα单克隆抗体 A2D9D1B1 (antibody, mouse IgG1, kappa, V domains shown)
VH: QVQLKESGPGLVAPSQSLSITCTVSGFSLSSYAIHWVRQPPGKGLEWLGVIWTGGSTIYNSALMSRLNISKDNSKSQVFLKMNSLQTDDTAMYYCARGNYLRYWGQGTLVTVSA
VL: NIVLTQSPASLAVSLGQRATISCRASESVDSYGYSYMHWNQQKPGQPPKLLIYLASDLESGVPARFSGSGSRTDFTLTIDPVEADDAATYYCQQNNDDPWTFGGGTKLEIKR
notes: also called 鼠抗A2D9D1B1; A2D9D1B1单克隆抗体
In the assay with 重组人SIRPα带his标签的蛋白 [2], B2 gave a Kd of 1.25 nM. For the same molecule, the binding result with 人SIRPβ-ECD-His抗原 is on record as “binds”. Also, the “fold stronger affinity than Benchmark” value with 重组人SIRPα带his标签的蛋白 [3] was roughly 2.4 fold.
